Results published in publication PMC4712673.
Substitutions are numbered along the chain they refer to. Numbers in names are those of the source. Where two headings read alike, the source gives them in different places.

Assays:
Test in all cases: EMSA
[1] = target: T1, Cus2p WT (Saccharomyces cerevisiae, UniProt P53830 1-285)
T1 sequence: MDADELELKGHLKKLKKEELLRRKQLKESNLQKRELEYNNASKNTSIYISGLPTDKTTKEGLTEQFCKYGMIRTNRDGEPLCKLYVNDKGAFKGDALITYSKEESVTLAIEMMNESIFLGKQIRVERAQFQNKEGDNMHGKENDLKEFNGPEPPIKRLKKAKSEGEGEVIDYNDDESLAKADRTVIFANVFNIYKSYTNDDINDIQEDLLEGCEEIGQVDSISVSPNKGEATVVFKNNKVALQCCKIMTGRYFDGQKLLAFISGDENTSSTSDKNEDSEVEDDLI

[2] = target: T2, Cus2p Y48D (Saccharomyces cerevisiae, UniProt P53830 1-285, Y48D)
T2 sequence: T1 sequence with Y48D

[3] = target: T1, Cus2p WT; remark: listed apart in the source
[4] = target: T1, Cus2p WT; remark: listed apart in the source

B1: stem IIa-stabilized U2 core RNA (structured_RNA)
RNA: GUAGUAUCUGUUCUUUGCGGUGUAACAACCGCAAUGACCUCAAUGAGGCUCAUUACCUUUUAAAUACACAUUUUUUGG
[1]
  binding result: binds

B2: stem IIc-stabilized U2 core RNA (structured_RNA)
RNA: GUAGUAUCUGUUCUUUUCAAUGUAACAACUGAAAUGACCUCAAUGAGGCUCAUUACCUUUUCAGUUGUUACAAUACACAUUUUUUGG
[2]
  binding result: binds
[3]
  binding result: binds

B3: G53A U2 core RNA (structured_RNA)
RNA: B2 RNA with C62A, G64U
[4]
  binding result: binds
